Test results taken from article PMC2171039.

Legend:
[1] = molecular target: Vps32 (Aspergillus nidulans); assay: two-hybrid
[2] = molecular target: GST::PalC (Aspergillus nidulans); assay: pull-down

Chain of Vps32 (Aspergillus nidulans) (C8V487 whole entry): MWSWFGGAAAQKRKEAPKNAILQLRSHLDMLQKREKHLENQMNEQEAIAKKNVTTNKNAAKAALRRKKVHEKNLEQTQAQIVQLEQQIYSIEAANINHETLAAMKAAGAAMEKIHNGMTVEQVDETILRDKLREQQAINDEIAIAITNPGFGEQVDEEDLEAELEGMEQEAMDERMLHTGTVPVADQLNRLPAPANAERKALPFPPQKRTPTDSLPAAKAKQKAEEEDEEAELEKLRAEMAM

| Substance | β-galactosidase activity, % of the wild type (% of the wild type) [1] | stoichiometry N (mol of zz-Vps32 per mole of GST::PalC) [2] |
| --- | --- | --- |
| PalC Arg442His (natural protein) | 11 | – |
| PalC Arg442Ala (natural protein) | 18 | – |
| zz-Vps32 (natural protein) | – | 0.9 |
